In a protein production outcome set (Wang et al. 2014):

Test: label from the status in PepcDB records

Sequence	protein production
MAPDQAKPAPFRDQFHRVLGVIRRGKLLILACVLLVVAPTIVFLQQATPRYTANAAVLIEAPDATDSLLDRSDMSRTRLNDLMITTEAEVLGSTPLARRVIDKLGLDQDPEFNARLRKPTAFQRVTFWLNPINWIPDGWRAGRKDEATMTPKVREELQRARVTATFLGRLSVKPKRRSFVIDLEFTATSREKSALIVNTLADLYVFDRLEAGFDETKRVNEWLAQRLESLRGDVALAEAAVETYRAENGLRPVGERQGTVANQQLTELNSRLVLARADLAQKQARLDQVRSLSRGGGVATASDVLQSSLIQQLRQREAEVRSALSEAEKTYGERHPKIIGMRADLGQLQSSIGGEIGKIASSAEGDVEIAAIGVRTLEREIVGLRQEGDVQGGAIVRLRELERQADSSRSLYEAFLSRFKRNAEQEQIQRANARLLSPADIPASPSYPRKIPILLVMMVVGFGLGIGLVFLVEGLDGTVHSTEELEALVGLPPLAVIPVVRGRGGGAVVLARPRAPIAHAFRNLRTALTLNGEETRRRIVMVSSSVPKEGKSFVSLGLALTYARAGERVLLIDADVHRSSLAATIGIDGTRGLAQVLRGEATLDQVVTRPPGMDLDFLAAGEASAQEELFDASTLGALLSEPASRYDRIIIDTAPVLAVADARIVAGVADQVIYLVRWGSTQQTAVRNGIKLLRDVRAPLAGMVLSQVDVRRHAVYGYGDYGASYGRYQEYYAE	failed
MAPEMNNKLSYGEKKRAYVTFLAGTGDYVKGVVGLAKGLRKTKSKYPLVVAVLPDVPADHRRQLLDQGCVIKEIQPVYPPDNQTQFAMAYYVLNYSKLRIWKFVEYSKLIYLDGDIQVFENIDHLFDLPDGNFYAVKDCFCEKTWSHTPQYKIGYCQQCPDKVTWPESELGPKPPLYFNAGMFVYEPSLPTYYNLLETLKVVPPTPFAEQDFLNMYFKDIYKPIPPVYNLVLAMLWRHPENIELNEAKVVHYCAAGAKPWRFTGQEGNMEREDIKMLVEKWWDIYNDESLDYKNFNVHCGQKEDVHRKPKTLPQFFTDLSEADVLQCAKAPSAA	failed
MAPHSLKKNYRCSRSLKQFYGGGPFIVSSDGSFIACACGDVINIVDSTDSSVKSTIEGESDTLTALALSPDDKLLFSAGHSRQIRVWDLETLKCIRSWKGHEGPVMGMACHASGGLLATAGADRKVLVWDVDGGFCTHYFRGHKGVVSSILFHPDSNKNILISGSDDATVRVWDLNAKNTEKKCLAIMEKHFSAVTSIALSEDGLTLFSAGRDKVVNLWDLHDYSCKATVATYEVLEAVTTVSSGTPFASFVASLDQKKSKKKESDSQATYFITVGERGVVRIWKSEGSICLYEQKSSDITVSSDDEESKRGFTAAAMLPSDHGLLCVTADQQFFFYSVVENVEETELVLSKRLVGYNEEIADMKFLGDEEQFLAVATNLEEVRVYDVATMSCSYVLAGHKEVVLSLDTCVSSSGNVLIVTGSKDKTVRLWNATSKSCIGVGTGHNGDILAVAFAKKSFSFFVSGSGDRTLKVWSLDGISEDSEEPINLKTRSVVAAHDKDINSVAVARNDSLVCTGSEDRTASIWRLPDLVHVVTLKGHKRRIFSVEFSTVDQCVMTASGDKTVKIWAISDGSCLKTFEGHTSSVLRASFITDGTQFVSCGADGLLKLWNVNTSECIATYDQHEDKVWALAVGKKTEMIATGGGDAVINLWHDSTASDKEDDFRKEEEAILRGQELENAVLDAEYTKAIRLAFELCRPHKVFELFSGLCRKRDSDEQIVKALQGLEKEEFRLLFEYVREWNTKPKLCHIAQFVLYKTFNILPPTEIVQVKGIGELLEGLIPYSQRHFSRIDRFVRSSFLLDYTLGEMSVIDPETVETEYPKDEKKKEKDVIAAMEQDTDELKQETPSRKRKSQKSKGKSNKKRLIAEAQGSVIAV	failed
MAPKAGKKPAEKKPAEKAPAEEEKVAEKAPAEKKPKAGKKLPKEAVTGGVEKKKKRVKKSTETYKIYIFKVLKQVHPDIGISSKAMGIMNSFINDIFEKLAQEASKLARYNKKPTITSREIQTAVRLVLPGELAKHAVSEGTKAVTKFTSS	failed
MAPKDITFVERCYKYIDMNKNNWSPYTVTSTKSWVKNYIEPFFKNLKLTEVNPSSVQAFVNYNFNNSTFTSAKVRYSFLSSVIREAYRLREIQENSCDFIKLPLEHHHHHH	not failed
MAPLRTKAVEVLQRNSRGAFTVPAHGLYPYQWLWDSAFIALGWTQVDWERAWQELLCLFDYGQGPDGMLPHIVFHEQSRDYFPGPDVWGREARAQPATSGITQPPVVATVVRYLYEKDPDRDRARERARYLFPKLLAFHRWLYHARDPYRTGLVVIVHPWESGMDNSPAWDKPLSRVPVENLPPYERRDVKHVNPEERPRKEDYDRYLSLLYLFRRLEYDPREIYRQSPFKVVDVGFNAILQRANRDLYALAVLLQEDPYEIEEWIVRGEVGLEALWDREAGFYFSWDLVAGEPIAVKTSAGFLPLFAGTPHQGRASLLAQEAERWGEKARYLLPSVDPTSPFFEPGRYWRGPVWINVNWMVAEGFRDYGFAALAARLKADALALMEREGFREYYDPLTGQGRGGEGFSWSAALALFWTR	not failed
MAPRKRNPNGSGSIWQRKDGRYEARVYVPQPDGTRKRKTVYGTTWEECDTKRQELVLRDRQGIPTPTRSAKLSEWLPYWLKHYVEPRRKLSTYDKYEVQVRLYLVPLLGTRRLESLSVADVRRFITRVQNAHTAATAKESHRVLRTALTAAVREELITRNVASLVEPPRVKQREIRPWSLEETLSFLEAARSDPLYAAFVLAIAMGLRRGELGGLRWSDVDLDNRVVHVRQQTQRRRGTLYDDDPKSRRIRVVPMPALCIAPLRWHRLRQRETFARTGVAWCEAGYVFATRNGRPVEPRNVYRSFTRVAADAGLRVVRLHDARHGCATLLTAAGVAPRVIMEILGHSQISITMDVYTHVVHDTQREAISHMDRLLKRRLPTSLSGGAGSIEFP	failed
MAQADTPAPVARLPRRRGIELALILMAVLLSVFGYCNVGLAQHDALPPGAAGYGAGLGVLALLAHLAVRLRAPYADPLLLPIGVLLNGLGLVLIYRLDLETPGDRAAPTQLVWSTLGVALFIVVVLLLRDHRVLQRYAYVCVAAALALLTVPIFFPAVNGARIWIRIEGFSIQPGEFAKVLLAVFFAAYLAANRSALAYAGRRVWRLQLPTGRVLGPILAVWLVSVGVLVLERDLGTSLLFFGLFVVLLYVATGRTGWIAVGLLLASLGAVAVGWLEPHVHSRVEDWLHPFASIEAGHGPNQLAQSLFAFAAGGVTGTGLGLGHSVLIGFAVKSDFILATAGEELGFLGLSAVFLLYGLLVERGYRAGLGARDPFGRLLAVGLSSIVALQVFVIAGGVTGLIPLTGMAMPFLAQGGSSVVTNWAIVALLIRVSHAARSQAGGRAEP	failed
MAQIISNAAVGRTLLILLLCAGVFFFIDFLVPALAALIICFSSWPLYKKLLVKCGGRSAVAASIALVLIVLGLITPLIFVFSYALQEIRIWAEWLVYANQHGAPVPLWIKDLPWVGEWLTLQWQQFIGEPHELGQIVSAISGQNLTGISRWVLQLGWNTLGLLLTLLFMLITLFFLYKDGESVAKQVDVVGERILPARWYRFSRVVPATVSSTVIGMTLIAIGEGIVLGIAYWIAGVPSAVAFGVLTAFMALIPGGAPTMFTLISLYLVGTGDMTAGVGLFLWGSIELFIVDKTLRPNLVGGPIKLPFLPTFFGLIGGVKTMGFVGLFVGPVLMALLVAIWREWLRDDPDTFVMPESLAPETLEADKVQRRLD	failed
MAQISQLSAVILAGGLARRMNGNEKGLCLLHQQPLISHILARLTPQVCTIYFNINRSFATYQQLYPQLTYYSDKIADFQGPLSGILSGFEKIDSEYLLFVPCDTPFLPKNLVTKLTNSLIMNEATIAYAHDGEQAHPTIALIHRSITPALASYLASGERRLYHFFKTQKSIAVDFSDQKNAFQNFNSLADLEQFSTISATRVDQSRLLGITGYSGTGKTTLLEKLIPILTANGIKVGLIKHSHHNVDIDKNGKDSHRLRTAGANPTIIVCQQRWALMTETPQQAVDFQQLITKFDPESVDLILVEGFKDEQFAKIQLHRQVIKKPLPELDEWTIATATDYPIARPNLLDINQIDKIADFIQQWLNN	failed
MAQKVEAGGGAGGASWDDGVHDGVRKVHVGQGQDGVSSINVVYAKDSQDVEGGEHGKKTLLGFETFEVDADDYIVAVQVTYDNVFGQDSDIITSITFNTFKGKTSPPYGLETQKKFVLKDKNGGKLVGFHGRAGEALYALGAYFATTTTPVTPAKKLSAIGGDEGTAWDDGAYDGVKKVYVGQGQDGISAVKFEYNKGAENIVGGEHGKPTLLGFEEFEIDYPSEYITAVEGTYDKIFGSDGLIITMLRFKTNKQTSAPFGLEAGTAFELKEEGHKIVGFHGKASELLHQFGVHVMPLTN	failed
MAQTDKHYFGTLLAQTSRAWRAELDRRLSHLGLSQARWLVLLHLARHRDSPTQRELAQSVGVEGPTLARLLDGLESQGLVRRLAVAEDRRAKHIVLTPKADVLIADIEAIAASVRNDVLTGIDESEQALCQQVLLRILANLENR	not failed
MARGDEGGENMIKIYTLGGYEEVGKNMTAVEYEGEVVIIDMGIRLDRVLIHEDVEFQKMSSKDLRKLGAIPDDRPIRDKKVVAIALSHGHLDHIGAVGKLAPHYPDVPIYGTPYTIRLAKSEIKGEEYFEVTNPLYETNYGEIVQVSENLAIEFVQVTHSIPHSSIVVIHTPEGAVVYACDYKFDNNHPYGEKPDYKRLKELGKEGVKVLIAESTRVAEETKTPSEAVAKMLLEDFFLYEGMEADGLIATTFASHIARLQELIEIANKMGRQAIFIGRSLAKYTGIAKQLGLIKMKGSRVLRSPNAVSKVLKEVSQARENYLLIVTGHQGEPGAILTRMANGELYDIGPRDTVVFSAGVIPNPLNIAQRYALETKLKMRGVRMIKDLHVSGHASKEDHRYLIRMLNPEYIVPAHGEFRMLTHYAELAEEEGYRIGKDVFISRNGHIVEII	failed
MARNKGWVGATCCFLLFTVVFLSQKIEVSEVAVNDGLRGSPGMLLFLLPGMVACFLSARGRLLYPLFGALAAMPVCLLLLHLWNTPMRSFWQELAYVMSAVFWCVLGAMGVLCLRSLYRRYLR	not failed
MARPAKLAKISDLFCCTTCPAIDDTCVAPCEGEAPQPFQLHDIPCPPGLHTNLIEPPDMTQNIYDDPIFFQAYSQMGRSLGGLDAAPEWPALQALLPPMNGLRVLDLGCGYGWFSRWASEHGARQVVGLDVSQKMLATARATTSAPNVQYQQEDLEQLRLPACSFDLAYSSLALHYIKDLPGLFAQVYAALVPGARLVFSIEHPIFMAPRNPGWQVDAQGRQSWPVDSYQQEGERVTDWLAEGVIKQHRTLGTLLNTLIDTGFNLRHVQEWGPTAQQIEDLPALAEERERPMLLLVAAQR	failed
MARPHFALTSVFLASSVSLSAFGFSLPARAQSEDVAQKCQQPIKSVEASFAACTAAIDTGALSGKALAGAYIKRGFLRTRQRDLVGAEADLDAAIKANPDAADAYTTRANFWNVSGKPERALADADQAIKLDPNLPLAHFVRGSAELKLGHDDRAIADYSRAIELRPKESGEVYAVRGFAYHRKGDDIRAVADYTEALKAAPEDVGTLLNRGDARRNLRDTAGAAADYSEAIKLAPGNAGGFKGRGFIRLLTQDTGGAVADFTEAIRLSPSESGLYLNRASALGLQNQSLLALADEDMAIRLEPQHPLAYVNRAETLKLLGDKVAARASVTKALQLAPGFPPAVEVLKKLGEPKRSKEPSSEAAQEAYRRCTFPVTDLGPGEEGIKQIIKVCTLLVTAQGGSDANRALVHLQRGSMYRRQGDYQHALIDFSESLRYDPESALAYTGRGNAYRGLKLLDQALADHTEAIRLDPKYATAYNNRGNVWRDKNDLAKAIADFDRAIAISPNYAMAYFNRGNSRLESGDKEGAVADFQQTVKLSPQFKEAAERLQELGVRM	failed
MARPNFRYTHYDLKELRAGTTLEISLSSVNNVRLMTGANFQRFTELLDFKYLGGVAKKSPIRIAVPETMHWHLIIDAEGHSGLAESSVKMLPAQPQATLTRKAS	not failed
